# In publication PMC3419727, “Identifying the Hotspots on the Top Faces of WD40-Repeat Proteins from Their Primary Sequences by β-Bulges and DHSW Tetrads” (PLoS ONE, 2012):
# T1: S. japonicus Tup11 WD40 domain (301–630) Cys337Ala (S. japonicus, UniProt B6JV84 301-630, Cys337 substituted by Ala)
# T1 construct: Tup11, S. japonicus, WD40 domain, amino acids 301-630; also called Cyc337
# T1 sequence (looked up): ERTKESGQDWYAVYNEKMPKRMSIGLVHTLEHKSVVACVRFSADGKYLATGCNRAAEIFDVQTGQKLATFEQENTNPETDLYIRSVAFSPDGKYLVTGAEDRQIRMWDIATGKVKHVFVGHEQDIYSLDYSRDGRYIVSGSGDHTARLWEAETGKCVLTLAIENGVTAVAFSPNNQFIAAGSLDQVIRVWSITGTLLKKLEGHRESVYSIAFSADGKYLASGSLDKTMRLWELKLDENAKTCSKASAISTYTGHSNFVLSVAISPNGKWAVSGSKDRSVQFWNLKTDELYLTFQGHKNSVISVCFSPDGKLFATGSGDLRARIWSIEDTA
# T2: S. japonicus Tup11 WD40 domain (301–630) Tyr426Ala (S. japonicus, UniProt B6JV84 301-630, Tyr426 substituted by Ala)
# T2 construct: Tup11, S. japonicus, WD40 domain, amino acids 301-630
# T2 sequence (looked up): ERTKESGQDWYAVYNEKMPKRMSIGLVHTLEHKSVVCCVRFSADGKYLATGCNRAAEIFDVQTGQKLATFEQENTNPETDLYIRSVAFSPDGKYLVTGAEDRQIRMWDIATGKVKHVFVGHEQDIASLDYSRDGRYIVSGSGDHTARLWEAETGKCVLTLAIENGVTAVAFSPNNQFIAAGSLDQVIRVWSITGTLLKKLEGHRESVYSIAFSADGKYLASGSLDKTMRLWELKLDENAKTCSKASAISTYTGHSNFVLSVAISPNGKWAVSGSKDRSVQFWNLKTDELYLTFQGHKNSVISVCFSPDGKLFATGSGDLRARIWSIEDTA
# T3: S. japonicus Tup11 WD40 domain (amino acids 301–630), wild type (S. japonicus, UniProt B6JV84 301-630)
# T3 construct: Tup11, S. japonicus, WD40 domain, amino acids 301-630; also called Tup11 WT
# T3 sequence (looked up): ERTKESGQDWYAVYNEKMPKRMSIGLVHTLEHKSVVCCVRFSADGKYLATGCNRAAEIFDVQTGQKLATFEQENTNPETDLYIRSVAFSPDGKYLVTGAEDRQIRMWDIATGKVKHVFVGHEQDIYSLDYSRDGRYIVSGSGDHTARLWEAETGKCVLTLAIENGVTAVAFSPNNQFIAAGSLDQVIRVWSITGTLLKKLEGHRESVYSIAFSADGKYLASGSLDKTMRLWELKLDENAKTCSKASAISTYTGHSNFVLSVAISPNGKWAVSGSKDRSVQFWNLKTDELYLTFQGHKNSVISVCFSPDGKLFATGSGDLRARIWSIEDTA
# T4: S. japonicus Tup11 WD40 domain (301–630) Leu524Ala (S. japonicus, UniProt B6JV84 301-630, Leu524Ala)
# T4 construct: Tup11, S. japonicus, WD40 domain, amino acids 301-630
# T4 sequence (looked up): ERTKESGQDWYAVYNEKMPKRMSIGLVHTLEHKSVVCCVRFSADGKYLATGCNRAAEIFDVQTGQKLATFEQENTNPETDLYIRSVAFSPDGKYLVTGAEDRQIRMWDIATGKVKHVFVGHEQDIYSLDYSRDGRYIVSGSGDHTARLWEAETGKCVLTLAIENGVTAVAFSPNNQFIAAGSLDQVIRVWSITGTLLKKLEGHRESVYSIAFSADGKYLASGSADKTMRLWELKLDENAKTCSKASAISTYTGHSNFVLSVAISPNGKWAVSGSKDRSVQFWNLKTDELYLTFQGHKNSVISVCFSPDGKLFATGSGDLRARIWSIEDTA
# T5: S. japonicus Tup11 WD40 domain (301–630) Lys575Ala (S. japonicus, UniProt B6JV84 301-630, Lys575Ala)
# T5 construct: Tup11, S. japonicus, WD40 domain, amino acids 301-630
# T5 sequence (looked up): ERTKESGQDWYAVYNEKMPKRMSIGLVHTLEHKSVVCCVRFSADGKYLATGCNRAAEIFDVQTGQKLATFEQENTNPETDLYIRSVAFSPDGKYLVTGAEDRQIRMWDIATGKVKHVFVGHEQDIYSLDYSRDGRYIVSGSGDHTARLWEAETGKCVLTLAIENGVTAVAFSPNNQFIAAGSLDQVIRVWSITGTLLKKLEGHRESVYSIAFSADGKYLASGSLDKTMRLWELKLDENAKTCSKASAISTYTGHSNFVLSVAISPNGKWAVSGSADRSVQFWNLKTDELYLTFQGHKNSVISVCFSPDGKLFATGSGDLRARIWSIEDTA
# B1: C-terminal region of S. pombe Fep1 (amino acids 319–564) (domain or fragment, UniProt Q10134 319-564, looked up)
# chain: AAGEPDNNGKVYYSYGPTQEQSILPLPENKHEGLPPYQNEYVPNGIRANQVVYPGQLVAVGNDSSKQLSESTTSNTDNNGVATANQSNPLGMKFHLPPILPVGESVCLPPRTSAKPRIAEGIASLLNPEEPPSNSDKQPSMSNGPKSEVSPSQSQQAPLIQSSTSPVSLQFPPEVQGSNVDKRNYALNVLSQLRSQHDLMIQELHNLNQHIQQIDEWLRSSDNENMASEHIKSSTPAVVASGALQT
# notes: Fep1, GATA-factor, S. pombe, C-terminal region, amino acids 319-564
# Experiments:
# Test in all cases: ITC; Fep1 (~1.4 mM) injected, 2 µl each time, into Tup11 WT or mutant (~0.2 mM); 25°C; 1×PBS pH 7.4, 150 mM NaCl; iTC200 (MicroCal); Fep1 into buffer subtracted as background
# Conditions in all cases: both partners purified
# [1] = target: T1, S. japonicus Tup11 WD40 domain …
# [2] = target: T2, S. japonicus Tup11 WD40 domain …
# [3] = target: T3, S. japonicus Tup11 WD40 domain (amino …)
# [4] = target: T4, S. japonicus Tup11 WD40 domain …
# [5] = target: T5, S. japonicus Tup11 WD40 domain …
binder,measurement,setting,value
B1,binding result,[1],binds
same,binding result,[2],binds
same,Kd,[3],~10 µM
same,binding result,[4],binds
same,reduction of binding free energy against wild type,[5],~1.9 kcal/mol
